Earlier results, collected in patent publication US7202065B2, “Stabilized liquid preparation of the protease which activates blood coagulation factor VII, or of its proenzyme” (ZLB Behring GmbH, priority 2001, dated 2007).

Conditions: solution containing 20 mM Tris, 0.15 mM NaCI at a pH of 7.5

In the case of “proenzyme: proenzyme, which is the non-activated form of the protease which activates blood coagulation factor VII”, the “loss of activity after enrichment or isolation” value is listed as “rapid loss of activity”.
